Results taken from patent publication US20250075002A1 (BEIGENE SWITZERLAND, published 2025).

B1: Gatipotuzumab-AF (antibody, IgG1, V domains shown)
VH: EVQLVESGGGLVQPGGSMRLSCVASGFPFSNYWMNWVRQAPGKGLEWVGEIRLKSNNYTTHYAESVKGRFTISRDDSKNSLYLQMNSLKTEDTAVYYCTRHYYFDYWGQGTLVTVSS
VL: DIVMTQSPLSNPVTPGEPASISCRSSKSLLHSNGITYFFWYLQKPGQSPQLLIYQMSNLASGVPDRFSGSGSGTDFTLRISRVEAEDVGVYYCAQNLELPPTFGQGTKVEIK
modifications: afucosylated Fc glycan (-AF)
B2: MUC1 3D1-hFc-AF (antibody, IgG1, V domains shown)
VH: EVQLVQSGAEVKKPGESLKISCKGSGYAFSNFWMNWVRQMPGKGLEWMGQIYPGDGDTNYNGKFKGQVTISADKSISTAYLQWSSLKASDTAMYYCARSYYRSAWFAYWGQGTLVTVSL
VL: EIVLTQSPDFQSVTPKEKVTITCRASQSIGTSIHWYQQKPDQSPKLLIKYASESISGVPSRFSGSGSGTDFTLTINSLEAEDAATYYCQQSNNWPLTFGQGTKVEIK
modifications: afucosylated Fc glycan (-AF)
B3: HuVH-HMFG1-AF (antibody, IgG1, V domains shown)
VH: QVQLVQSGAEVKKPGASVKVSCKASGYTFSAYWIEWVRQAPGKGLEWVGEILPGSNNSRYNEKFKGRVTVTRDTSTNTAYMELSSLRSEDTAVYYCARSYDFAWFAYWGQGTLVTVSS
VL: DIQMTQSPSSLSASVGDRVTITCKSSQSLLYSSNQKIYLAWYQQKPGKAPKLLIYWASTRESGVPSRFSGSGSGTDFTFTISSLQPEDIATYYCQQYYRYPRTFGQGTKVEIK
modifications: afucosylated Fc glycan (-AF)
B4: huBG219P-Bz0 (antibody, IgG1, V domains shown)
VH: EVQLLESGGGLVQPGGSLRLSCAASGFTFNDYIMSWVRQAPGKGLEWVATVSSGGDNTYYPDSVKGRFTISRDNSKNTLYLQMNSLRAEDTAVYYCTRYGGLGAMDYWGQGTLVTVSS
VL: DIQMTQSPSSLSASVGERVTITCRASGNIHNYLTWYQQKPGKSPKLLVYNAKTLADGVPSRFSGSGSGPDYTLTISSLQPEDFATYYCQHFWSVPYTFGQGTKLEIK
notes: Humanized
B5: Clivatuzumab-AF (antibody, IgG1, V domains shown)
VH: QVQLQQSGAEVKKPGASVKVSCEASGYTFPSYVLHWVKQAPGQGLEWIGYINPYNDGTQYNEKFKGKATLTRDTSINTAYMELSRLRSDDTAVYYCARGFGGSYGFAYWGQGTLVTVSS
VL: DIQLTQSPSSLSASVGDRVTMTCSASSSVSSSYLYWYQQKPGKAPKLWIYSTSNLASGVPARFSGSGSGTDFTLTISSLQPEDSASYFCHQWNRYPYTFGGGTRLEIK
modifications: afucosylated Fc glycan (-AF)

Assays:
[1] = target: T1, Human MUC1 (full length), on cells (human, UniProt P15941 24-1255); assay: cell-based or functional assay
[2] = target: T1, Human MUC1 (full length), on cells; assay: flow cytometry on live ZR-75 cells (native MUC1)

T1 sequence (P15941 24-1255 limits assumed): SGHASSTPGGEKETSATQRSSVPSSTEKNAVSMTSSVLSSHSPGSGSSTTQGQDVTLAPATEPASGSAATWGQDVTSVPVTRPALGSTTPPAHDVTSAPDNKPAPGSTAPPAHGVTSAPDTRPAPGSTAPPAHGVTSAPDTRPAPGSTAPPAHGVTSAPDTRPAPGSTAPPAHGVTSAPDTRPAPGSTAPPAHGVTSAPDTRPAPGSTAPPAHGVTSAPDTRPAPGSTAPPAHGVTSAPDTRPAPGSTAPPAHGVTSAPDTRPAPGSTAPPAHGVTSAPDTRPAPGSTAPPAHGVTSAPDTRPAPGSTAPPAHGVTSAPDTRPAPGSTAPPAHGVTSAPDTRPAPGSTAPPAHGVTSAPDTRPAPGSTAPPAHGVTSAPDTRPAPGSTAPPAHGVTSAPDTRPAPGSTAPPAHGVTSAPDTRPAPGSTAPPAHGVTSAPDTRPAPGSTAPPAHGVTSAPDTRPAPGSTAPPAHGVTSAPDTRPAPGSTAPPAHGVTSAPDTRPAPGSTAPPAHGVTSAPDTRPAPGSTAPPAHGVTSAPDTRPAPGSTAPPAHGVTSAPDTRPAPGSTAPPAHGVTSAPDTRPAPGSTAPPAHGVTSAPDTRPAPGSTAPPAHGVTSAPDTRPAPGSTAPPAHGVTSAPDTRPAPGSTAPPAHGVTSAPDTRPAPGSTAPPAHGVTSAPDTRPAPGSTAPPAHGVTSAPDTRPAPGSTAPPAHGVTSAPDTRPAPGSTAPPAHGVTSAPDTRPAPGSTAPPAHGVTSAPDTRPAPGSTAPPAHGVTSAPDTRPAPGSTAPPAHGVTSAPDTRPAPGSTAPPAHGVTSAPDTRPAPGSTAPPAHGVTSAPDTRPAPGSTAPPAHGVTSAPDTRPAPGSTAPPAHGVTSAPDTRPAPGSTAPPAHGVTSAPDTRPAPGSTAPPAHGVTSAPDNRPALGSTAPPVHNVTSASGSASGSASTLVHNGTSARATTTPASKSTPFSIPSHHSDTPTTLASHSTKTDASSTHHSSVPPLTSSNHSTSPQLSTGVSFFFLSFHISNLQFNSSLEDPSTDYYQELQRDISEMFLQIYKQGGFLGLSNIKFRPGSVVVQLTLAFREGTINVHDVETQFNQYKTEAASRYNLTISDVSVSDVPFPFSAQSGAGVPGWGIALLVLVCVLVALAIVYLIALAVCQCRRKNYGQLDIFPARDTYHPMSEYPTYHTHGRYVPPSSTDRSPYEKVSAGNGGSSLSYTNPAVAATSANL

Binder	Cell lysis activity EC50, T-47D/nanoluc in human whole blood [1] [nM]	Cell lysis activity Emax, T-47D/nanoluc in human whole blood [1] [%]	EC50 [2] [nM]
B1	2.46	10.2	
B2	8.85	10.6	
B3		3.59	
B4			20.9
B5		2.31	
